According to US20030050242A1, “Protein polymerization inhibitors and methods of use” (priority 1999, published 2003):
Where two headings read alike, the source gives them in different places. Ends that are not written are not given here. Peptide text beside a SMILES is read from it.

Tests used:
HIV-1 [1] = settings: summary of Experiments 1-6
Protocol: Next, the ability of peptide agents to inhibit viral infection was evaluated. Accordingly, the peptide agents listed in Table 1 were used in several viral (e.g., HIV-1, HIV-2, and SIV) infection assays. […] Once inhibitory tripeptides were identified, more specific assays were conducted to determine the effect of varying concentrations of the selected tripeptides and combination treatments (e.g., the use of more than one modified tripeptide in combination).

HIV-1 [2] = settings: 100 μM; Experiment 6
Protocol: The HUT cells were resuspended in 1 ml of RPMI 1640 medium supplemented with 10% (v/v) heat-inactivated fetal bovine serum (FBS, GIBCO), penicillin (100 u/ml), streptomycin (100 u/ml) and Polybrene (Sigma, 2 μg/ml) with or without the presence of the different small peptides (100 μM) mentioned above. Thereafter, the HIV-1 virus was added at 25 TCID50 in a volume of 20 μl. Cells were incubated with the virus at 37° C. for one hour and, subsequently, the cells were pelleted at 170× g for seven minutes. The cells were then washed three times in RPMI medium without peptides at room temperature by cell sedimentation at 170× g for seven minutes, as above. After the final wash, the cells were resuspended in RPMI culture medium in 24-well plate (Costar corporation) and were kept at 37° C. in 5% CO2 with humidity. Culture supernatants were collected when medium was changed at day 4, 7, and 11 post infection and viral p24 production was monitored by using an HIV-1 p24 ELISA kit (Abbott Laboratories, North Chicago, USA).

[3] = biological target: viral capsid protein (p24) of SIV (SIV)
[4] = biological target: viral capsid protein (p24) of HIV-2 (HIV-2)
[5] = biological target: viral capsid protein (p24) of SIV (SIV); remark: listed apart in the source
[6] = biological target: major capsid protein (p24) of HIV-1 (HIV-1) (UniProt P04591)
[7] = biological target: viral capsid protein (p24) of HIV-2 (HIV-2); remark: listed apart in the source
[8] = biological target: T1, major capsid protein (p24) of HIV-1 (HIV-1, UniProt P04591); assay: cell-based or functional assay
[9] = biological target: T1, major capsid protein (p24) of HIV-1; assay: cell-based or functional assay; remark: listed apart in the source

In the case of CC(C)C[C@H](NC(=O)[C@H](C)N)C(=O)NCC(N)=O [ALG-NH2, alanyl-leucyl-glycine amide] (H-Ala-Leu-Gly-NH2), the “effect on HIV-1 infection, in words” value (HIV-1 [1]) is reported as “inhibited and/or prevented HIV-1 infection” and the “reduction of virus, capsid protein p24 in the supernatant” value (from here on “reduction of virus, capsid protein p24”) (HIV-1 [2]) is reported as ~100%.

With C[C@H](N)C(=O)N[C@@H](CO)C(=O)NCC(N)=O [ASG-NH2, alanyl-seryl-glycine amide] (H-Ala-Ser-Gly-NH2) the “effect on HIV-1 infection, in words” value (HIV-1 [1]) was “inhibited and/or prevented HIV-1 infection” and the “inhibiting or preventing HIV-1 infection, in words” value (HIV-1 [2]) was “less effective”.

In the case of CC(C)[C@H](NC(=O)CN)C(=O)NCC(N)=O [GVG-NH2, glycyl-valyl-glycine amide] (H-Gly-Val-Gly-NH2), the “effect on HIV-1 infection, in words” value (HIV-1 [1]) is reported as “inhibited and/or prevented HIV-1 infection” and the “inhibiting or preventing HIV-1 infection, in words” value (HIV-1 [2]) is reported as “less effective”.

NCCCC[C@H](N)C(=O)N[C@@H](CCC(N)=O)C(=O)NCC(N)=O [KQG-NH2, lysyl-glutaminyl-glycine amide] (H-Lys-Gln-Gly-NH2) was tested, and the “effect on HIV-1 infection, in words” value (HIV-1 [1]) was “inhibited and/or prevented HIV-1 infection” and the “reduction of virus, capsid protein p24” value (HIV-1 [2]) was ~100%.

N=C(N)NCCC[C@H](N)C(=O)N[C@@H](CCC(N)=O)C(=O)NCC(N)=O [RQG-NH2, arginyl-glutaminyl-glycine amide] (H-Arg-Gln-Gly-NH2) was tested, and the “effect on HIV-1 infection, in words” value (HIV-1 [1]) was “inhibited and/or prevented HIV-1 infection” and the “reduction of virus, capsid protein p24” value (HIV-1 [2]) was ~100%.

In the case of CC(C)C[C@H](NC(=O)[C@@H](N)CO)C(=O)NCC(N)=O [SLG-NH2, seryl-leucyl-glycine amide] (H-Ser-Leu-Gly-NH2), the “effect on HIV-1 infection, in words” value (HIV-1 [1]) is reported as “inhibited and/or prevented HIV-1 infection” and the “reduction of virus, capsid protein p24” value (HIV-1 [2]) is reported as ~100%.

For C[C@@H](O)[C@H](NC(=O)[C@@H]1CCCN1C(=O)[C@@H](N)CO)C(N)=O [SPT-NH2, seryl-prolyl-threonine amide] (H-Ser-Pro-Thr-NH2), the “effect on HIV-1 infection, in words” value (HIV-1 [1]) was “inhibited and/or prevented HIV-1 infection” and the “inhibiting or preventing HIV-1 infection, in words” value (HIV-1 [2]) was “less effective”.

CC(C)[C@H](N)C(=O)NCC(=O)NCC(N)=O [VGG-NH2, valyl-glycyl-glycine amide] (H-Val-Gly-Gly-NH2) was tested, and the “effect on HIV-1 infection, in words” value (HIV-1 [1]) was “inhibited and/or prevented HIV-1 infection” and the “inhibiting or preventing HIV-1 infection, in words” value (HIV-1 [2]) was “less effective”.

Work on GAT-NH2 (peptide) yielded a reverse transcriptase (RT) activity in the supernatants, Day 10 RT (OD) [3] of 2.34 OD and a reverse transcriptase (RT) activity in the supernatants, Day 10 RT (OD) [4] of 2.83 OD.

GHK-NH2 (peptide) gave a reverse transcriptase (RT) activity in the supernatants, Day 10 RT (OD) [3] of 2.38 OD and a reverse transcriptase (RT) activity in the supernatants, Day 10 RT (OD) [4] of 2.93 OD.

For GKG-NH2 + CQG-NH2 (pool or library), the reverse transcriptase (RT) activity in the supernatants, Day 10 RT (OD) [5] was 2.89 OD, the reverse transcriptase (RT) activity in the supernatants, Day 10 RT (OD) [6] was 1.89 OD and the reverse transcriptase (RT) activity in the supernatants, Day 10 RT (OD) [7] was 2.8 OD.

For GPG-NH2 + CQG-NH2 (pool or library), the reverse transcriptase (RT) activity in the supernatants, Day 10 RT (OD) [5] was 0.91 OD, the reverse transcriptase (RT) activity in the supernatants, Day 10 RT (OD) [6] was 0.397 OD and the reverse transcriptase (RT) activity in the supernatants, Day 10 RT (OD) [7] was 1.17 OD.

GPG-NH2 + GKG-NH2 (pool or library) showed a reverse transcriptase (RT) activity in the supernatants, Day 10 RT (OD) [5] of 0.309 OD, a reverse transcriptase (RT) activity in the supernatants, Day 10 RT (OD) [6] of 0.164 OD and a reverse transcriptase (RT) activity in the supernatants, Day 10 RT (OD) [7] of 1.11 OD.

In the case of GPQ-NH2 (peptide), the reverse transcriptase (RT) activity in the supernatants, Day 10 RT (OD) [3] is reported as 2.18 OD and the reverse transcriptase (RT) activity in the supernatants, Day 10 RT (OD) [4] is reported as 2.73 OD.

For Gly-Lys-Gly-NH2 (peptide), the reverse transcriptase (RT) activity in the supernatants, Day 10 RT (OD) [3] was 0.099 OD and the reverse transcriptase (RT) activity in the supernatants, Day 10 RT (OD) [4] was 0.147 OD.

With HKA-NH2 (peptide) the reverse transcriptase (RT) activity in the supernatants, Day 10 RT (OD) [3] was 2.52 OD and the reverse transcriptase (RT) activity in the supernatants, Day 10 RT (OD) [4] was 2.67 OD.

With ILK-NH2 (peptide) the reverse transcriptase (RT) activity in the supernatants, Day 10 RT (OD) [3] was 2.25 OD and the reverse transcriptase (RT) activity in the supernatants, Day 10 RT (OD) [4] was 2.79 OD.

For KAL-NH2 (peptide), the reverse transcriptase (RT) activity in the supernatants, Day 10 RT (OD) [3] was 2.52 OD and the reverse transcriptase (RT) activity in the supernatants, Day 10 RT (OD) [4] was 2.75 OD.

Work on KAR-NH2 (peptide) yielded a reverse transcriptase (RT) activity in the supernatants, Day 10 RT (OD) [3] of 1.72 OD and a reverse transcriptase (RT) activity in the supernatants, Day 10 RT (OD) [4] of 2.64 OD.

With LKA-NH2 (peptide) the reverse transcriptase (RT) activity in the supernatants, Day 10 RT (OD) [3] was 2.45 OD and the reverse transcriptase (RT) activity in the supernatants, Day 10 RT (OD) [4] was 2.77 OD.

B1: GAT-NH2 (peptide)
peptide: Gly-Ala-Thr-NH2
B1 was tested, and the “reverse transcriptase (RT) activity in the supernatants, Day 10 RT (OD)” value (“reverse transcriptase (RT) activity” for short) [8] was 1.56 OD.

B2: KAR-NH2 (peptide)
peptide: Lys-Ala-Arg-NH2
For B2, the “reverse transcriptase (RT) activity” value [8] was 2.78 OD.

B3: Ala-Leu-Gly-NH2 (peptide)
peptide: Ala-Leu-Gly-NH2
B3 was tested, and the “p24 production of infected HUT78 cells (HIV-1 p24 ELISA), Day 7 HIV-1, reduction (%), peptide at 100 µM” value [9] was 100%.

B4: Cys-Gln-Gly-NH2 (peptide)
peptide: Cys-Gln-Gly-NH2
In the case of B4, the “reverse transcriptase (RT) activity” value [8] is reported as 0.108 OD.

B5: LKA-NH2 (peptide)
peptide: Leu-Lys-Ala-NH2
In the case of B5, the “reverse transcriptase (RT) activity” value [8] is reported as 2.43 OD.

B6: Ser-Leu-Gly-NH2 (peptide)
peptide: Ser-Leu-Gly-NH2
For B6, the “p24 production of infected HUT78 cells (HIV-1 p24 ELISA), Day 7 HIV-1, reduction (%), peptide at 100 µM” value [9] was 99%.

B7: Ser-Pro-Thr-NH2 (peptide)
peptide: Ser-Pro-Thr-NH2
In the case of B7, the “p24 production of infected HUT78 cells (HIV-1 p24 ELISA), Day 7 HIV-1, reduction (%), peptide at 100 µM” value [9] is reported as 25%.

B8: ARV-NH2 (peptide)
peptide: Ala-Arg-Val-NH2
For B8, the “reverse transcriptase (RT) activity” value [8] was 1.53 OD.

B9: Gly-Lys-Gly-NH2 (peptide)
peptide: Gly-Lys-Gly-NH2
B9 was tested, and the “reverse transcriptase (RT) activity” value [8] was 0.074 OD.

B10: Arg-Gln-Gly-NH2 (peptide)
peptide: Arg-Gln-Gly-NH2
B10 was tested, and the “p24 production of infected HUT78 cells (HIV-1 p24 ELISA), Day 7 HIV-1, reduction (%), peptide at 100 µM” value [9] was 99%.

B11: GPQ-NH2 (peptide)
peptide: Gly-Pro-Gln-NH2
In the case of B11, the “reverse transcriptase (RT) activity” value [8] is reported as 1.97 OD.

B12: KAL-NH2 (peptide)
peptide: Lys-Ala-Leu-NH2
With B12 the “reverse transcriptase (RT) activity” value [8] was 2 OD.

B13: Val-Gly-Gly-NH2 (peptide)
peptide: Val-Gly-Gly-NH2
B13 was tested, and the “p24 production of infected HUT78 cells (HIV-1 p24 ELISA), Day 7 HIV-1, reduction (%), peptide at 100 µM” value [9] was 50%.

B14: HKA-NH2 (peptide)
peptide: His-Lys-Ala-NH2
B14 was tested, and the “reverse transcriptase (RT) activity” value [8] was 2.55 OD.

B15: ACQ-NH2 (peptide)
peptide: Ala-Cys-Gln-NH2
B15 was tested, and the “reverse transcriptase (RT) activity” value [8] was 0.904 OD.

B16: ILK-NH2 (peptide)
peptide: Ile-Leu-Lys-NH2
For B16, the “reverse transcriptase (RT) activity” value [8] was 2.03 OD.

B17: Lys-Gln-Gly-NH2 (peptide)
peptide: Lys-Gln-Gly-NH2
With B17 the “p24 production of infected HUT78 cells (HIV-1 p24 ELISA), Day 7 HIV-1, reduction (%), peptide at 100 µM” value [9] was 99%.

B18: Gly-Val-Gly-NH2 (peptide)
peptide: Gly-Val-Gly-NH2
B18 was tested, and the “p24 production of infected HUT78 cells (HIV-1 p24 ELISA), Day 7 HIV-1, reduction (%), peptide at 100 µM” value [9] was 25%.

B19: GHK-NH2 (peptide)
peptide: Gly-His-Lys-NH2
With B19 the “reverse transcriptase (RT) activity” value [8] was 2.15 OD.

B20: Ala-Ser-Gly-NH2 (peptide)
peptide: Ala-Ser-Gly-NH2
In the case of B20, the “p24 production of infected HUT78 cells (HIV-1 p24 ELISA), Day 7 HIV-1, reduction (%), peptide at 100 µM” value [9] is reported as 25%.
